These are literature values, as cited in patent US8501705B2, “Methods and materials for treating autoimmune and/or complement mediated diseases and conditions” (The Board of Regents of the University of Texas System, priority 2003, dated 2013).

The series concerns the target C3 (Mus musculus, UniProt P01027). The following applies: inhibition of C3.

C3, sequence (P01027 25-1663): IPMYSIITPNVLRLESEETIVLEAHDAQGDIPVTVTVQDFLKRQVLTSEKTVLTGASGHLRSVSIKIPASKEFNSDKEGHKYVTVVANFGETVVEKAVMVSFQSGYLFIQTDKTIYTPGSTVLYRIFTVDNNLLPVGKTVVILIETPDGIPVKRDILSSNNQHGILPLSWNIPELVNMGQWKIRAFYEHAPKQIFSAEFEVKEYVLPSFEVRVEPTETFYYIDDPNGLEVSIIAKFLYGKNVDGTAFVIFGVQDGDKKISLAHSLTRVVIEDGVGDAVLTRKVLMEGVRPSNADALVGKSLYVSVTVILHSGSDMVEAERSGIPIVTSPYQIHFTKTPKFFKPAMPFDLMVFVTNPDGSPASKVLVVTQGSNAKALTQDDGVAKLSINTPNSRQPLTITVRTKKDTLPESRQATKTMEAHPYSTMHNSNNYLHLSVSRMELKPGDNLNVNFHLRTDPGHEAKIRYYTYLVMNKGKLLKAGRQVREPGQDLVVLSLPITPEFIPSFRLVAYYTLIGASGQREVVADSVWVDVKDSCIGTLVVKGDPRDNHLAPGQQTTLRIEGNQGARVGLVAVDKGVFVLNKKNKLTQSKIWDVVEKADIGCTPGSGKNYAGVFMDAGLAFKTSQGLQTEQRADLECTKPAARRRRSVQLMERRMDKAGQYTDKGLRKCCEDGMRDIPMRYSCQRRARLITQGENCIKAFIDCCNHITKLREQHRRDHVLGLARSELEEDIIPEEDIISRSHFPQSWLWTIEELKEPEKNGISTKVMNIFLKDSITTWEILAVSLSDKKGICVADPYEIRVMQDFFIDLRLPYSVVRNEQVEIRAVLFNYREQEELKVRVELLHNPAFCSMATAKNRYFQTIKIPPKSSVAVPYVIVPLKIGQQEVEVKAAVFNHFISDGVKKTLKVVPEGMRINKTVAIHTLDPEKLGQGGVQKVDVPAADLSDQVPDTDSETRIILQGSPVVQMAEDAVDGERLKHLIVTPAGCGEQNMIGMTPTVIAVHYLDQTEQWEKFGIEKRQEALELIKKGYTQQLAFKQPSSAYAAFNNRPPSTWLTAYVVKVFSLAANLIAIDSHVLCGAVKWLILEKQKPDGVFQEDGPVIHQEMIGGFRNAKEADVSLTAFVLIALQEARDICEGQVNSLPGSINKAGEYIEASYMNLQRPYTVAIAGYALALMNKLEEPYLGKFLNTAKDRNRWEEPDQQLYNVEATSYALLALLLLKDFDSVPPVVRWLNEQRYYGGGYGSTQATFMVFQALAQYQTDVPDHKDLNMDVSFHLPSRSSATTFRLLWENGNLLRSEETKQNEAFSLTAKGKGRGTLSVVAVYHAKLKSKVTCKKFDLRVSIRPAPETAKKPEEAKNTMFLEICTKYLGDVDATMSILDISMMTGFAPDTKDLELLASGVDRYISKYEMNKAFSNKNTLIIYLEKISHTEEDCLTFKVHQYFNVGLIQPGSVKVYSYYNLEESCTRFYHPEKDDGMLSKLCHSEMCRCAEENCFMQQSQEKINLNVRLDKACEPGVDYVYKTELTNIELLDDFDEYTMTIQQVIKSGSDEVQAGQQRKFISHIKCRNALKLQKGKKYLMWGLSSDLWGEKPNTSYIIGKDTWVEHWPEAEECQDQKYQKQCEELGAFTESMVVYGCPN

With cobra venom factor, the EAMG disease induction result is “inhibits disease induction”.
